This assay has as its target DNMT3A (DNA methyltransferase 3A) (Homo sapiens (Human), UniProt Q9Y6K1 1-912). As to the kind of experiment: epitope mapping on a membrane of 12-mer DNMT3A peptides, 2 µg GST-ISGF3γ, fluorescence detection.

DNMT3A (DNA methyltransferase 3A), sequence (Q9Y6K1 whole entry): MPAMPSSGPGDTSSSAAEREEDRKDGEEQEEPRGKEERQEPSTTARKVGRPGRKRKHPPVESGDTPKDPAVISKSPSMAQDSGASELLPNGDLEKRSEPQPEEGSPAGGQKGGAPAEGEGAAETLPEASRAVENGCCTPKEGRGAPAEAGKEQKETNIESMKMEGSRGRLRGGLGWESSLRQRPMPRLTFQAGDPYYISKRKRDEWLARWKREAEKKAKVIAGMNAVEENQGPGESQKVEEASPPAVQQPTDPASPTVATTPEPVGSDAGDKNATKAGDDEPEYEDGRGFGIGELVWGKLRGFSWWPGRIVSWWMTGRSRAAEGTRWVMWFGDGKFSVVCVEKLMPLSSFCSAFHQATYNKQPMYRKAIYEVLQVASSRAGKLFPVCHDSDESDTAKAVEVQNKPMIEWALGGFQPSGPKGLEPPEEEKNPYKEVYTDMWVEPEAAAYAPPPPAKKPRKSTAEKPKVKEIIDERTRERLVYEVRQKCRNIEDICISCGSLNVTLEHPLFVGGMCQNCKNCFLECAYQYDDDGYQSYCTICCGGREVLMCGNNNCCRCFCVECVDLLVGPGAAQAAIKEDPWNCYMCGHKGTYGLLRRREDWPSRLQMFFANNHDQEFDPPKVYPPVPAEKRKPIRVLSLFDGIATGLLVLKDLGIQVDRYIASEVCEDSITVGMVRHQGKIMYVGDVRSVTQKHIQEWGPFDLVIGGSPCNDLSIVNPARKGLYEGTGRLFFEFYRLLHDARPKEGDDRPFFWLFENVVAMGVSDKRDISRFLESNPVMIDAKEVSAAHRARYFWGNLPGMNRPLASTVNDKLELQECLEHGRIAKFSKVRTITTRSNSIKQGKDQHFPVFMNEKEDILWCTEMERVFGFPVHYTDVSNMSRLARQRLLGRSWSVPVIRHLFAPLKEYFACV
Description: Then, 2 μg of GST-ISGF3γ protein were incubated with the membrane.

B1: GST-ISGF3γ protein (other)
chain: MASGRARCTRKLRNWVVEQVESGQFPGVCWDDTAKTMFRIPWKHAGKQDFREDQDAAFFKAWAIFKGKYKEGDTGGPAVWKTRLRCALNKSSEFKEVPERGRMDVAEPYKVYQLLPPGIVSGQPGTQKVPSKRQHSSVSSERKEEEDAMQNCTLSPSVLQDSLNNEEEGASGGAVHSDIGSSSSSSSPEPQEVTDTTEAPFQGDQRSLEFLLPPEPDYSLLLTFIYNGRVVGEAQVQSLDCRLVAEPSGSESSMEQVLFPKPGPLEPTQRLLSQLERGILVASNPRGLFVQRLCPIPISWNAPQAPPGPGPHLLPSNECVELFRTAYFCRDLVRYFQGLGPPPKFQVTLNFWEESHGSSHTPQNLITVKMEQAFARYLLEQTPEQQAAILSLV
notes: Recombinant fusion used at 2 µg on the DNMT3A peptide membrane; not shown: GST (glutathione S-transferase) tag
Turning to B1, the binding result is “binds”.

The values above are taken from patent publication US20180238885A1 (INSERM INSITUT NATIONAL DE LA SANTE ET DE LA RECHERCHE …, published 2018).
